These results are taken from PMC10911177, “Exploring the ATG9A interactome uncovers interaction with VPS13A” (Journal of cell science, 2024).

The target of the assay is T1, 3×Flag−His6−ATG9A (purified) (UniProt Q7Z3C6 1-839).
T1 construct: ATG9A; also called Flag−ATG9A; 3×Flag−ATG9A
T1 sequence (looked up): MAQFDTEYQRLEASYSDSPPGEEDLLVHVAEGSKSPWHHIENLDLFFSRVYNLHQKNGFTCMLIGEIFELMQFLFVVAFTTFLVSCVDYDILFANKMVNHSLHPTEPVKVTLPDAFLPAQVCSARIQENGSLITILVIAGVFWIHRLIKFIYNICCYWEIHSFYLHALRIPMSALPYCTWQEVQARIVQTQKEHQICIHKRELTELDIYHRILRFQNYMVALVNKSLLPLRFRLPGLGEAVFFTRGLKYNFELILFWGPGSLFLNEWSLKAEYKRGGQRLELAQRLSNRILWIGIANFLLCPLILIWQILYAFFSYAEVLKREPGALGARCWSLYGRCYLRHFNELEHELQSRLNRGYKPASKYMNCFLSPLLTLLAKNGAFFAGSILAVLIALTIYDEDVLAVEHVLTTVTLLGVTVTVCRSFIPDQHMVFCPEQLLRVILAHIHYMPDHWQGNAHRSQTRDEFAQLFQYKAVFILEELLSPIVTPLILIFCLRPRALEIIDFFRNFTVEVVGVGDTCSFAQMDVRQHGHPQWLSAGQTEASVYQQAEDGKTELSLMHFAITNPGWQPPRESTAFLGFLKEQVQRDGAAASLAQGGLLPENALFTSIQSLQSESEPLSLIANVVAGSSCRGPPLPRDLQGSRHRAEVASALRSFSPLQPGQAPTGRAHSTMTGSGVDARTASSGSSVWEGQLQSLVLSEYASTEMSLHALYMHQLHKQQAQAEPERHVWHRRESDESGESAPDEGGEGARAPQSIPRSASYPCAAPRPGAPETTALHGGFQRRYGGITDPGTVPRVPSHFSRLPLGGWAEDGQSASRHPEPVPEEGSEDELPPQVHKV
Put plainly: co-IP; in vitro IP: 100 μg purified 3×Flag−GFP−VPS13A fragment 4 mixed with 10 μg purified ATG9A at 4°C in 0.002% LMNG:CHS (5:1), GFP-Trap beads, four washes with VPS13 buffer with detergent; immunoblot. To be noted: both partners purified. A general note: Immunoblotting shows a protein as a band on a membrane.

B1: 3×Flag−eGFP−VPS13A fragment 4 (purified) (domain or fragment, human, UniProt Q96RL7 2554-3174, looked up)
chain: VVWETKPKKKARWKPMSVKHTEKLEREFKEYTESSPSEDKVIQLDTNVPVRLTPTGHNMKILQPHVIALRRNYLPALKVEYNTSAHQSSFRIQIYRIQIQNQIHGAVFPFVFYPVKPPKSVTMDSAPKPFTDVSIVMRSAGHSQISRIKYFKVLIQEMDLRLDLGFIYALTDLMTEAEVTENTEVELFHKDIEAFKEEYKTASLVDQSQVSLYEYFHISPIKLHLSVSLSSGREEAKDSKQNGGLIPVHSLNLLLKSIGATLTDVQDVVFKLAFFELNYQFHTTSDLQSEVIRHYSKQAIKQMYVLILGLDVLGNPFGLIREFSEGVEAFFYEPYQGAIQGPEEFVEGMALGLKALVGGAVGGLAGAASKITGAMAKGVAAMTMDEDYQQKRREAMNKQPAGFREGITRGGKGLVSGFVSGITGIVTKPIKGAQKGGAAGFFKGVGKGLVGAVARPTGGIIDMASSTFQGIKRATETSEVESLRPPRFFNEDGVIRPYRLRDGTGNQMLQVMENGRFAKYKYFTHVMINKTDMLMITRRGVLFVTKGTFGQLTCEWQYSFDEFTKEPFIVHGRRLRIEAKERVKSVFHAREFGKIINFKTPEDARWILTKLQEAREPSPSL
notes: VPS13A, human, fragment 4, residues 2554-3174; Subcloned into pcDNA3.1(+); The methods partly write '3×Flag−eGFP−VPS13A' without 'fragment 4'; also called Flag−GFP−VPS13A4; 3×Flag-VPS13A fragment 4
Take B1: the binding result is given as “binds”.
